How the values were obtained:
Conditions in all cases: 20 nM; 72 h
MCF10A [1] = experiment: percent viability (nuclei count relative to siNT); higher = more viable cells
Description: (§1)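 After 72 h, cells were fixed and stained with Hoechst and anti-fibrillarin, and nucleoli per nucleus were counted with CellProfiler. Values are plate-adjusted percent effect for the one-nucleolus and 5+ nucleoli phenotypes, normalised to siNT (0%) and to the positive controls siNOL11 or siKIF11 (100%), as the mean of biological triplicates. Percent viability is the nuclei count relative to siNT.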

MCF10A [2] = experiment: 5+ nucleoli phenotype percent effect (relative to siNT 0% and siKIF11 100%); higher = more cells with five or more nucleoli
Description: as §1

MCF10A [3] = experiment: one-nucleolus phenotype percent effect (relative to siNT 0% and siNOL11 100%); higher = more cells with one nucleolus (ribosome biogenesis inhibition)
Description: as §1

Sequence | percent viability (MCF10A [1]) | 5+ nucleoli phenotype percent effect (MCF10A [2]) | one-nucleolus phenotype percent effect (MCF10A [3])
CUCUAGAGGGAAGCACUUUCUG [hsa-miR-526a] | 39.9% | -7.42% | 0.562%
CUUCCAGACGCUCCGCCCCACGUCG [hsa-miR-3180-5p] | 67.4% | 28.4% | -9.39%
CAAAAACUGCAGUUACUUUUGU [hsa-miR-548am-3p] | 96% | 42.5% | -23.3%
UAAAGUGCUUAUAGUGCAGGUAG [hsa-miR-20a-5p] | 81.6% | 6.94% | -13.2%
AAACAAACAUGGUGCACUUCUU [hsa-miR-495-3p] | 93.6% | -10.6% | 5.47%
UCCGAGCCUGGGUCUCCCUCUU [hsa-miR-615-3p] | 74.9% | -0.788% | -6.23%
CUGGGAGAGGGUUGUUUACUCC [hsa-miR-30c-1-3p] | 13.1% | -21.9% | 23.4%
CUGGAGAUAUGGAAGAGCUGUGU [hsa-miR-1270] | 34.1% | -41.4% | 38.6%
UCUGCCAUCCUCCCUCCCCUAC [hsa-miR-4769-3p] | 87% | 30.9% | -18%
ACUGAUUUCUUUUGGUGUUCAG [hsa-miR-29a-5p] | 134% | 23.5% | -23.9%
ACACAGUGCUUCAUCCACUACU [hsa-miR-3681-3p] | 76.6% | -3.88% | -4.5%
UAUAAAAUGAGGGCAGUAAGAC [hsa-miR-3163] | 53% | 30.5% | -19.2%
AGCGGGGAGGAAGUGGGCGCUGCUU [hsa-miR-4706] | 32.7% | -0.458% | -0.404%
GAGGUUUUCUGGGUUUCUGUUUC [hsa-miR-329-5p] | 56% | 17.3% | -9.91%
AAGCUGCCAGUUGAAGAACUGU [hsa-miR-22-3p] | 35.3% | 8.61% | -3.65%
AGGACCUUCCCUGAACCAAGGA [hsa-miR-659-5p] | 40.3% | -33.7% | 34.3%
UAAAAUUUGCAUCCAGGA [hsa-miR-4282] | 66% | 22.1% | -28.5%
AGGUUGUCCGUGGUGAGUUCGCA [hsa-miR-323b-5p] | 9.9% | 57.7% | -5.61%
UCAUUUAUCUGUUGGGAAGCUA [hsa-miR-4729] | 53.1% | -14.5% | 1.2%
AAGUCCUGCUUCUGUUGCAG [hsa-miR-6838-3p] | 56.4% | -28.6% | -6.74%

Sequence | percent viability (MCF10A [1]) | 5+ nucleoli phenotype percent effect (MCF10A [2]) | one-nucleolus phenotype percent effect (MCF10A [3])
CAGGCGUCUGUCUACGUGGCUU [hsa-miR-3186-5p] | 23.1% | -8.59% | 27.8%
AGACUUCCCAUUUGAAGGUGGC [hsa-miR-617] | 43.8% | -37.8% | 43.9%
CCUCAGGGCUGUAGAACAGGGCU [hsa-miR-1266] | 49.2% | 16.1% | 12.6%
GUGGACCUGGCUGGGAC [hsa-miR-4535] | 65.5% | 17.4% | -11%
UCUAAAGACUAGACUUCGCUAUG [hsa-miR-4744] | 106% | 32% | -22%
AAAAGUAACUAUGGUUUUUGCC [hsa-miR-548bb-5p] | 138% | 30.8% | -28.8%
GGCCUUGUUCCUGUCCCCA [hsa-miR-4312] | 22.7% | -25.8% | 56%
CAGGGAACAGCUGGGUGAGCUGCU [hsa-miR-6750-5p] | 60.6% | 27.2% | -6.66%
CUGAUAAGAACAGAGGCCCAGAU [hsa-miR-3161] | 34.7% | -24.6% | 18.2%
AAAUCUCUGCAGGCAAAUGUGA [hsa-miR-216b] | 97.3% | 44.2% | -16.2%
CAGGGCUGGCAGUGACAUGGGU [hsa-miR-4446-3p] | 25.9% | -5.74% | 1.33%
CCUGCAGAGAGGAAGCCCUUC [hsa-miR-3158-5p] | 38.5% | -45.3% | 26.4%
UCGUGGCCUGGUCUCCAUUAU [hsa-miR-1204] | 48.3% | 2.14% | -7.25%
UUCACAUUGUGCUACUGUCUGC [hsa-miR-130a-5p] | 124% | 19% | -14.6%
GCAGUCCAUGGGCAUAUACAC [hsa-miR-455-3p] | 112% | 26.8% | -12.4%
CCCUUGGGUCUGAUGGGGUAG [hsa-miR-3189-3p] | 25.3% | -6.22% | 15.4%
CUGCCCUGGCCCGAGGGACCGA [hsa-miR-874] | 62.9% | -5.29% | 4.65%
UCCAGCUCGGUGGCAC [hsa-miR-4267] | 34.5% | 11.3% | -0.0012%
GAGCUUAUUCAUAAAAGUGCAG [hsa-miR-590-5p] | 66.5% | -1.22% | -0.31%
GAUGAUGCUGCUGAUGCUG [hsa-miR-1322] | 41.1% | -20.7% | 24.5%

Sequence | percent viability (MCF10A [1]) | 5+ nucleoli phenotype percent effect (MCF10A [2]) | one-nucleolus phenotype percent effect (MCF10A [3])
AACUCUGUCUUCACUCAUGAGU [hsa-miR-3664-5p] | 60.5% | 6.12% | -2.78%
AAAGUGCUUCCCUUUGGACUGU [hsa-miR-520a-3p] | 60.8% | 40.6% | -9.18%
CUGGGAGGUCAAGGCUGCAGU [hsa-miR-1273h-5p] | 38.1% | 11.3% | 11.3%
AGAUCGACCGUGUUAUAUUCGC [hsa-miR-369-5p] | 53% | 3.93% | -0.708%
UGGGCUAAGGGAGAUGAUUGGGUA [hsa-miR-664b-5p] | 32.1% | 2.04% | 5.55%
UGAUCAGGCAAAAUUGCAGACU [hsa-miR-4772-5p] | 17% | 47.2% | 9.01%
AAGCAUUCUUUCAUUGGUUGG [hsa-miR-1179] | 98.7% | 0.87% | 1.48%
CUGGUUUCACAUGGUGGCUUAG [hsa-miR-29b-2-5p] | 43.4% | 7.64% | -3.17%
AUUGUAGAACCUAAGAUUGGCC [hsa-miR-3674] | 27.9% | -29.6% | 40.2%
UCUCUGCUCUGCUCUCCCCAG [hsa-miR-6728-3p] | 28.9% | 19.2% | -7.63%
UCUGGCAAGUAAAAAACUCUCAU [hsa-miR-3128] | 24.9% | -13.6% | 10.4%
CGGUGGACUGGAGUGGGUGG [hsa-miR-8071] | 9.26% | -15.7% | 22.4%
AUGGAGAUAGAUAUAGAAAU [hsa-miR-620] | 62.9% | -31.1% | 24%
ACCCGUCCCGUUCGUCCCCGGA [hsa-miR-1247-5p] | 116% | 2.26% | -16.3%
CCGGUUCCAGUCCCUGGAG [hsa-miR-6070] | 55.6% | -6.27% | 16.9%
UGUCUUACUCCCUCAGGCACAU [hsa-miR-550a-3p] | 60.2% | -24% | 15.4%
ACCUGGGUUGUCCCCUCUAG [hsa-miR-6742-3p] | 90.1% | 73.9% | -15.1%
CAAAGUGAUGAGUAAUACUGGCUG [hsa-miR-3609] | 98.3% | 2.01% | -12.6%
UGCAAAAGUAAUUGCAGUUUUUG [hsa-miR-548g-5p] | 73.1% | 3.25% | -17%

— the supplement of paper PMC10899765
